This is an account of results in IntAct's records for PubMed 19109891.

The labels stand for the following.
B1: Dystrophin (Homo sapiens), P11532-5 (parent)
chain: MREQLKGHETQTTCWDHPKMTELYQSLADLNNVRFSAYRTAMKLRRLQKALCLDLLSLSAACDALDQHNLKQNDQPMDILQIINCLTTIYDRLEQEHNNLVNVPLCVDMCLNWLLNVYDTGRTGRIRVLSFKTGIISLCKAHLEDKYRYLFKQVASSTGFCDQRRLGLLLHDSIQIPRQLGEVASFGGSNIEPSVRSCFQFANNKPEIEAALFLDWMRLEPQSMVWLPVLHRVAAAETAKHQAKCNICKECPIIGFRYRSLKHFNYDICQSCFFSGRVAKGHKMHYPMVEYCTPTTSGEDVRDFAKVLKNKFRTKRYFAKHPRMGYLPVQTVLEGDNMETPASSPQLSHDDTHSRIEHYASRLAEMENSNGSYLNDSISPNESIDDEHLLIQHYCQSLNQDSPLSQPRSPAQILISLESEERGELERILADLEEENRNLQAEYDRLKQQHEHKGLSPLPSPPEMMPTSPQSPRDAELIAEAKLLRQHKGRLEARMQILEDHNKQLESQLHRLRQLLEQPQAEAKVNGTTVSSPSTSLQRSDSSQPMLLRVVGSQTSDSMGEEDLLSPPQDTSTGLEEVMEQLNNSFPSSRGHNVGSLFHMADDLGRAMESLVSVMTDEEGAE

The test covers variants of B1. The following applies: with ank2_human ANK2, Q01484.
Sequence of ank2_human ANK2, Q01484 (Q01484 whole entry): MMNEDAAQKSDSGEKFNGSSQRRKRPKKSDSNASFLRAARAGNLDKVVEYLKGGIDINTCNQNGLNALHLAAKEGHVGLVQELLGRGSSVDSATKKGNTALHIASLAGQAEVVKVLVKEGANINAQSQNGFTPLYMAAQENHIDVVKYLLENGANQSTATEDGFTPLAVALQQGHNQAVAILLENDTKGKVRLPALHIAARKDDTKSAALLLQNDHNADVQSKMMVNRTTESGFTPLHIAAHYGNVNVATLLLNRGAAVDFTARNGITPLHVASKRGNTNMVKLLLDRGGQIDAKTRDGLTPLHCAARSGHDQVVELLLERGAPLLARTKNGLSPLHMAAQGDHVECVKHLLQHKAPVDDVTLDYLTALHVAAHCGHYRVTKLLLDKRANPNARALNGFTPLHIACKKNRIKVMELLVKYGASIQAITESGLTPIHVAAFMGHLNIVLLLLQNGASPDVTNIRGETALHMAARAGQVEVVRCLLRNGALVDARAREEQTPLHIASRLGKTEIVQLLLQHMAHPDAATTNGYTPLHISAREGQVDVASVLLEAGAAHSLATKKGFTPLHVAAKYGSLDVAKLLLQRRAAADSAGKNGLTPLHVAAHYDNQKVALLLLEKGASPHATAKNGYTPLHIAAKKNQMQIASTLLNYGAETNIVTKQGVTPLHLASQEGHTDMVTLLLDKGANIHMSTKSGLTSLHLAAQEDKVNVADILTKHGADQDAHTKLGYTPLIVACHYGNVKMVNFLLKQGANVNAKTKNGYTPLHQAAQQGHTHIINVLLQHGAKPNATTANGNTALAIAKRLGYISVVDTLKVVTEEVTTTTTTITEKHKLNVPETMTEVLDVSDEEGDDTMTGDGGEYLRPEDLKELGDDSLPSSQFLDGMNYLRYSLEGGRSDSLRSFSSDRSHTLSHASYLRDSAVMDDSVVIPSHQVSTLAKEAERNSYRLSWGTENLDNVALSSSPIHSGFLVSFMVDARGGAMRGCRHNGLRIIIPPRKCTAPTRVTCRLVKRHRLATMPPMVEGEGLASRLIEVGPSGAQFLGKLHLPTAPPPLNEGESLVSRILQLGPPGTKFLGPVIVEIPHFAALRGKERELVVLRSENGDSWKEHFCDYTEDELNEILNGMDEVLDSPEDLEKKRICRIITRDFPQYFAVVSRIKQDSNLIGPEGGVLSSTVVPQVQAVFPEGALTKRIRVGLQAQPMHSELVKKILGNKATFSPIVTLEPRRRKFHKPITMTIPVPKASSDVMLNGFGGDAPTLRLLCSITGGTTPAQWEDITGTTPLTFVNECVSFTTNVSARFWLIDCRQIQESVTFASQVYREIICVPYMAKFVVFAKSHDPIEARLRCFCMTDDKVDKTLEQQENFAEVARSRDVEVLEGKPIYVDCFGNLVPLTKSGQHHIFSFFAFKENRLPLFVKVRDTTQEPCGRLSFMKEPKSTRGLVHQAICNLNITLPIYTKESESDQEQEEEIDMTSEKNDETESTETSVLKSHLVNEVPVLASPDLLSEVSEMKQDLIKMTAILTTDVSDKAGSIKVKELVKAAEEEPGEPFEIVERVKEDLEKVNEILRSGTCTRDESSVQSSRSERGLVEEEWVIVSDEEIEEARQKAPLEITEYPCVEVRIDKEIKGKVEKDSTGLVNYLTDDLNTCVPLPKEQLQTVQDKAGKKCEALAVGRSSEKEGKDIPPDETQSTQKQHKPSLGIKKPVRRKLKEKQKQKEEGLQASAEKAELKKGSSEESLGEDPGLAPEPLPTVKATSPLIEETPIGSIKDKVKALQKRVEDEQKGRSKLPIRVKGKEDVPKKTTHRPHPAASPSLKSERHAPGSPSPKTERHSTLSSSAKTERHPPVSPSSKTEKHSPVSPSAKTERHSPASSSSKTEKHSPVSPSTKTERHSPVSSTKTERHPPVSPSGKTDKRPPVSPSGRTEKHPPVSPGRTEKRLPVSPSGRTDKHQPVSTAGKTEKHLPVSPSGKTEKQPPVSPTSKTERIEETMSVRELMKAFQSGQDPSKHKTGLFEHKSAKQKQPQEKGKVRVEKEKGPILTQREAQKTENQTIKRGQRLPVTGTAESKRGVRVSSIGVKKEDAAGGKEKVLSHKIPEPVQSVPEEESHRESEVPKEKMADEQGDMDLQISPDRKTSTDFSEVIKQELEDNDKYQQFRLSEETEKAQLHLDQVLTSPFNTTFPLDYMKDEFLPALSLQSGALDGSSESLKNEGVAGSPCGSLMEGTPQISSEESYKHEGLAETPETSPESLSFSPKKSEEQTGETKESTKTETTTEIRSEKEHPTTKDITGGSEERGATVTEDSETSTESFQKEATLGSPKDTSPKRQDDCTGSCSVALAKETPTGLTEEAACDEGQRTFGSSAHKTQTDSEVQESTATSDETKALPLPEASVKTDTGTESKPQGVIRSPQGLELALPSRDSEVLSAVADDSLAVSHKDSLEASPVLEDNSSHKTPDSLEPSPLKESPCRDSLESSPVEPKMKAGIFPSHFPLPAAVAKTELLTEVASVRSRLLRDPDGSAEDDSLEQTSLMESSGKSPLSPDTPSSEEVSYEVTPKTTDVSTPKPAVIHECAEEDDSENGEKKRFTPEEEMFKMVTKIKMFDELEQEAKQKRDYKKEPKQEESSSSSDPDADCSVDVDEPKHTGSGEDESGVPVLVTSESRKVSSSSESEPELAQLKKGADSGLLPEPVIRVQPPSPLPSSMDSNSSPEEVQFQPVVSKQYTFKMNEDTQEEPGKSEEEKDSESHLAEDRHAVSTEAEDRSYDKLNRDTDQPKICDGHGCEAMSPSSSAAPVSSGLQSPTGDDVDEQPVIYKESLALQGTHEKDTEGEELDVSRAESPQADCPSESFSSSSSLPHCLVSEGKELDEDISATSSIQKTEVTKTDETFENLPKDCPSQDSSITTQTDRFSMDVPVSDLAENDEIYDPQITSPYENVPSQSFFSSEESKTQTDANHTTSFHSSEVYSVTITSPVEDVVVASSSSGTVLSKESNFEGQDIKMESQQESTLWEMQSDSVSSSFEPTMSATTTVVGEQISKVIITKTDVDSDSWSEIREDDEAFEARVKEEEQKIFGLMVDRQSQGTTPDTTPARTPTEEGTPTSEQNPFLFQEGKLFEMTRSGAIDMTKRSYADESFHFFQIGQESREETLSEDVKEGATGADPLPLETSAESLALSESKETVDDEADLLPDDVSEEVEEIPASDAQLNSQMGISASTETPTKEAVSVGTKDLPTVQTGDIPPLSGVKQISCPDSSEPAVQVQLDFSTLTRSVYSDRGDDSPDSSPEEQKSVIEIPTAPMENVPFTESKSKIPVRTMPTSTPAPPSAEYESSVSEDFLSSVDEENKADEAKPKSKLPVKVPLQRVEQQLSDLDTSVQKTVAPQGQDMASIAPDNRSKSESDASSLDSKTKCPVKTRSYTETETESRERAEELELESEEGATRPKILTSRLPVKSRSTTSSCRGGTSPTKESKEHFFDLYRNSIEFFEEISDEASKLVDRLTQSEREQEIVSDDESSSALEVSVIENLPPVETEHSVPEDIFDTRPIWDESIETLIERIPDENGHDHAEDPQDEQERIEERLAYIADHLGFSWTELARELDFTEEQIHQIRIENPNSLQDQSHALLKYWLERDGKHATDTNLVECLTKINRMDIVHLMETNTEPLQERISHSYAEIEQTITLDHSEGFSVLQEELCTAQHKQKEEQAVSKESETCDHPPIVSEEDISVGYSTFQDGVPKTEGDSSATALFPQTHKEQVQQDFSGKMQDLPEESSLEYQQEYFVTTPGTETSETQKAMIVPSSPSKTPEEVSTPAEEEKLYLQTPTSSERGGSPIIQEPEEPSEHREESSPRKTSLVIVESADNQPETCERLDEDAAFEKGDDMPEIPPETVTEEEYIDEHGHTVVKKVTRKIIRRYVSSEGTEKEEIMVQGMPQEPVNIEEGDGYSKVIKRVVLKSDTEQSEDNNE
In the case of D267N, the “effect of a mutation on the interaction” value was “decreasing interaction”.
